# According to US20180179292A1, “RKIP AGONISM IN THE TREATMENT AND PREVENTION OF HEART FAILURE” (Leibniz-Institut für analytische Wissenschaften- ISAS-e.V., priority 2015, published 2018):
# B1: RKIP: Raf kinase inhibitor protein, overexpressed in cells by adenoviral transduction (protein, UniProt P30086 2-187, looked up)
# Phosphatidylethanolamine-bindi …: PVDLSKWSGPLSLQEVDEQPQHPLHVTYAGAAVDELGKVLTPTQVKNRPTSISWDGLDSGKLYTLVLTDPDAPSRKDPKYREWHHFLVVNMKGNDISSGTVLSDYVGSGPPKGTGLHRYVWLVYEQDRPLKCDEPILSNRSGDHRGKFKVASFRKKYELRAPVAGTCYQAEWDDYVPKLYEQLSGK
# modifications: Flag tag
# Legend:
# [1] = test system: neonatal rat cardiac fibroblasts; experiment: [3H]Thymidine incorporation in neonatal rat fibroblasts; type: cell-based; details: adenovirally transduced Flag-RKIP, 0.1% FCS, 96 h
# [2] = test system: neonatal rat cardiomyocytes (NRCM); experiment: Contractile activity of neonatal rat cardiomyocytes; type: cell-based; details: in the presence of isoprenaline (50 nM), 33° C., beats per minute
# Description: NRCM were cultured for 24 h and transduced as indicated with a control virus (LacZ) or a virus encoding RKIP-wt and/or treated with rituximab as indicated. The spontaneous contractions were measured at 33° C. for one minute and normalized for each experiment to LacZ under unstimulated conditions. NRCM were then stimulated with isoproterenol (50 nM) and after 2 min contractions were counted again. SEM; *, p<0.0001, n=5
# Neonatal rat cardiomyocytes were isolated as described (Lorenz et al. Nature 2003, 426:574-579; Vidal et al., Cardiovasc. Res. 2012, 96:255-264). Cardiomyocytes were transduced by adenoviruses or treated with indicated antibodies. To monitor the contractile activity of cardiomyocytes, live cells were examined on a Zeiss Axiovert 135 microscope.
molecule,measurement,setting,value
B1,proliferation ([3H]thymidine incorporation),[1],minor but significant anti-proliferative effect
same,NRCM contractility,[2],increased NRCM contractility
